Test: soluble fraction after stress (log2 fold change); higher = more stays soluble; pooled small domains, quantitative proteomics
Settings: stress: 50 degC
How it was run: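 The measure of aggregation propensity here is the base-two logarithm of the fold change in the soluble amount of each protein after stress. A higher value means more of that protein stays in solution. Stress was applied at 50°C to pooled libraries of small protein domains, read out by high-throughput quantitative proteomics.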

Row | Sequence | soluble fraction (log2)
1 | HMGKPTPASQVATRWLTGNLPESLPVAGPAPSFEALARTVSTDLHPRSVLQELVRLGVAEEANGVVTLRRQ | -0.00643
2 | HMPSLSAILHDARVAAGLSMRQASAASGLSIGFISMLEQGKVQDISLQRLGRLVTAYDLEPLDVIEAAG | -1.55
3 | HMSVTDDQLRVFTNKSGTKIKAKIVEVSDDKVKLIRDDNKKFIVPINSLSEEDQDYLRDWVSNEAVEP | 0.0333
4 | HMEQTMNDMLKLVDLLPQNQQDIVRMRFYENMSFKEIAESNQISINTALGRMRYAILNLRKYAAERNL | -2.35
5 | HMNHHEIIMKNIDTLLKEKNISISKLEKSLGISNGYISRLRNGKYNFSLDLLLKLAKKFKISIDYLLTDFD | 0.00249
6 | HMKFTELEQLMLKREINTLADIARVLKTTPQAVSNWKARDQIPYHIVAKINASINKDSNDSSLSI | 0.00789
7 | HMSGSPREQAESEYRKAIAAVNQGRVSEATESLRAALRLDAFQVAARQLLVKLLLEAKNQDEAIQVLR | -0.463
8 | HMGTKRWELPRRVQQMATQHGKSISTAAAEELVSRSGENTRMLDNDLVKLAQMVEAPQIELADVERWIVR | 0.221
9 | HMESGNLIFTNAPIADVVNAIETRYGKKLQASNQTSDLQFTGIFKNTDEFSTVVKTIEIALGLQFEV | -1.19
10 | HMTFGENLIRLRRQQGLSQEQLGMRIGVSRQTVSKWELNDTTPEMEKLIALADLFGLSLDELTGRV | -0.115
11 | HMSEIVEEQNTKLKQAVSKLSKRQQEVLYLKFEEGLDYEQISKIMDLKYQSVRNLVSTAIIKIKEH | -2.16
12 | HMHDAKAEIIRLSALLTEYQRSYYIDGHSQVSDLEYDRLFDRLVALETSHPELREADSPTQRV | -0.855
13 | HMKSIFIRADELAAELDVSKALAYKMINQWNEELKAKGYTTVGGRVSRQYYYEKIYGAENVFDF | -2.37
14 | HMTHEAEDLNALRMMVRDPIFSSDEPDLQQLRGAVAHAPQFVDRFKELYNDYQRLAEFVQNSL | -0.769
15 | HMNNIGSKIKSAKILNNLDDNQLSEITGIDKLQLRSIQDGQVNPTKMELEIISKALKLPTNYFTK | -0.0222
16 | HMEQPLSLKLANNAFSRFWGNANPAEKDTQPNNSDIAKWVIEQSGGKITQTMADKIAQIIRPEWAA | 0.184
17 | HMPPGQIVNEALQRAGNSTPTGTAISAQDDIKLYTSALAELATQGDTSSASVAKLREALQTAQVAFYNAV | 0.0769
18 | HMDNRLFKMLYYLLDKERATAPELAAEFEVSTRTIYRDVEALSSAGIPIYAEPGRNGGIYLLQD | -2.21
19 | HMDNNFIQSLYPIAIGISKNQLDPWDLINGWVEYYLKNKEKYINHPNLKAVAVLKMKGLLIDHFRKS | -3.57
20 | HMTRTEYMAQLEKYLKKLPHKEFQEAITFFNEYFDEAGPEKETAIMEELGSPKEAASELITNILNRHI | -0.149
21 | HMEPADALVAALVARGVSPSTARITVKQYPATRIQPQLEVFDYLVAQKDPKVSRNPPGFLLSAIRGEYA | -0.188
22 | HMDLATQHAAKVNAAILAARRFEREGSWRQVAAKYSEALQLMPGNEQASRGYQQAMAMLDERD | 0.0786
23 | HMKNAMTDIYLEEIKKILTKNEFLVYTLRELNNFSVQFITDNYDLSEKTIYNSVYRAKKKIDRHFT | -0.0693
24 | HMTKPLHELLSQREFQVFTQLAAGRSVGEIAQQLSLSSNTVSTYRARILEKTGTRNDVELALYAIRR | -1.52
25 | HMPPNRDDEHLQALRDYYAANRRIPSLQRVASLLGFSSRSAAVKLMGRLADEGFIERTADDDAWITGKRFF | -1.19

Row | Sequence | soluble fraction (log2)
26 | HMVVRRLPFGFSKRFGVLVVPGTSNPVELLYREDASMQSLLEARRVVAQPVAFKKTDVESFNAQLARAHEN | -1.23
27 | HMSENEVQAKVKEIVDRYAGDKSALIAILQDVQDEYRYLPKEALVSIQQQMNIPLSRVYEVATFYDAFS | -0.424
28 | HMKHFNDEELDGFAGLKSDDYNEEQVELFRNIFEELHPDEIIEWTESLRRRGIEIPSSLKDEVVMMIN | 0.173
29 | HMNMSVVEKVIQQISNPGRDSLIPILQAVQEEEGFISRESVIEIGKALDLPASKIYGVATFYNQFR | -0.338
30 | HMSPFYILDEVEAALDDTNLGRLLEIYEELRENSQLLVITHQKRTMEVGDALYGVTMRGDGVSAVISQRLR | 0.303
31 | HMQKAQEYILVDIKGEVQTPGVYKLPVNSRVIDAIEASGGLTKKAVTTYINLSKTLKDENVIIINKKSEL | -0.2
32 | HMDALPLIQLEKEIKDFISQGQKINAIKHYRNVMDRDFGTTISLKLAKYTVDALAQNIKVDLTKGYDQ | -0.475
33 | HMIYNSGTTDSRGEAIVGGYLVTVTDTDTKDPVANAAVTLHKDNSISIRLPNSRLLDYADQTTVTVQLV | -0.0327
34 | HMELEWENYSLAGEIKTTVMLYQNRRNGLPEEAKQKADALMKQLKQAVIENDAQKVEKIDDALTALLFE | -0.15
35 | HMNIGIVSLAAVPMRKEPSDRAEMVNQILFGETFDVLEEQEKWTLVQLHHDAYQGWIDRKQWDYASGIAD | -1.01
36 | HMALALDDLFDRYEQLQDQSLGDKTEEGQELRAMIRAYIEQEGLSVRVTRSTTNRELLELIEQEMEG | -0.174
37 | HMDDVYMVPVKDIAINDLKQEFEKLGIPNIQNTIPDKDLNFFIVRKDDLALVNYAIEKTMER | -0.0369
38 | HMDSAMMDLVMRVQLALFTKGYDVGIIDGKIGPKTRAQIKRYQSDNRLSSTGTLTTSLLTSLGIQ | -1.88
39 | HMTRDAQLAALERLMDDPSPVVRKAVLKGVQAAGTEGLLWLQQLSKNQTLGPYALALLTELR | -0.412
40 | HMSVTYRYSYVYNGNTYSDGWSVRRAIENNENKRFGPEPSDLDHEAQKQARVTFWAEHGVEYKEQEVV | -0.879
41 | HMQEDQKTSIFDIEGVEKGVASVLSSIKVEIVSDLLEADMDDILKSGKISEDDLDGVYEAVQNFVER | 0.42
42 | HMSSPRAIYSAIQKAVGEDMILYREDVQIILDKLDADLLVDDILEKMELDGTLVRQRDGTWLLL | -0.658
43 | HMTKQEYLNQLKNELVKQGVADAEDVVTEYEQHFAFKLADGFGEEEIAKKLGDPAAIASQFVG | 0.293
44 | HMTDVRFISIPIQKEHPWNRKLVSELNLPPGTLLVFLRRTGENIVPNGKTMIQEGDVLVLGASAYR | -0.295
45 | HMKDLTIRQQQFLNYIKDHLSLTGFPPTRSDIANEMGFKSPNAAEDHLRALARKGAIEIVPGTSRGIRLP | -0.24
46 | HMSLPNNLIEQLQDPEPKARRRAVRRLAATRDPSAIPLLRNVYLQDGDDRVRDAAEAALVQFRAMQHN | 0.0586
47 | HMPGLPLWAFSTRGSAIHTGASFRDGDGLLFGPESRGLPDWLLEEVGQDRVLRLPMRPGSRSLNLSNAV | -0.304
48 | HMGPVDFYQMFISELQHLAEKPVTVDALIESTQLHKSQLTEWLKRAVDDGVVKKLNRPARFQVKNK | -0.029
49 | HMELGYTPNNLRSVRAKYGLTQKQVAEITGLKTWHPVNRWEAPVEAAYHADMPHTKWLKLLDELSSR | -0.993
50 | HMSTSFQVQVSVLDLRIRKEPTVKGQEVGKISKGIHTITETRSADGYTWGKLESGQGWIALEFTTKLD | -0.194

Row | Sequence | soluble fraction (log2)
51 | HMNLTSNDAYSRILNAIITSELRPGDTVTEIQLAQKFGFGRTPVREAIMRLENEGFIVSAERKKRVYIL | -2
52 | HMGKPAGLIRELGNHPEDEKPVTLNNGRFGPYVKHGKVMASLTKADSPDDITFDRAIELIAIKAEKMAAKG | 0.184
53 | HMGTTMLEVPNFVGEVFKEIDPEKYPNLRLVDSDYTYSNEYEAGKVISQDPVARTQVAEGSTVKLVIS | 0.133
54 | HMINKIANLSAELRMEGLPVSIRSTQAAVKIYMDLGGDDRNLLKTALMSIYVKDRYDIPKFNKVFEKLFA | -1.12
55 | HMATVTVPNLKGMTPSGAESALAELNLKGAVGDSVESNDVENGKVASQDQAAGSDAKEGDTITYHLSS | 0.0967
56 | HMGDWEKALAQFAAHRLANGSTAFLDEMYPIFERILLQAALNKTGGRKIEAAELLGWGRNTLTRKLKELGF | -2.2
57 | HMELPSDEHLDDISHLARIGHKKGLQEKIIQLEQQGLASAEFIQQLKTLTNNFQFEKIIQWVDSEL | -0.0426
58 | HMDAYDEVTTLSQMVASGKNTTVAHLKHLKEYHQTDYLRQAVEWLLSNRKNVSFSVDEVMQEVHN | -0.0339
59 | HMRVTEVSYDKFLDMLSGGQVTVVELQENERELYFKAADENGAERIYSTGVFPDADLQKRLSESGVTF | -0.025
60 | HMFSLDMDRLVRPGFMASGNVTFSDGVTGKWALDQMGRLALETAQKGYQPSPADVQAFQRELQQQLQRQG | -0.0885
61 | HMLPERIQTIVALIGHGRAMDLVREFGGQEIKFPAQEGNDTWAALVEVIGEAATRKLAAVFGGGQAPPVYI | -0.778
62 | HMDSEKVLTNLKEELVLQLSNIEPYGYVPSQYWYSKVQRVQSVQELGKYVDGDLEAFVMKYAEDWESQK | -0.191
63 | HMLSDHGLNDRQIMVIAGLMNGGTVTVRSIESQYGVSLNTARADVKMLVDAGLLTETGREVNMKVYSWSGK | -2
64 | HMTNIDIEKSIKNTITANYDDVLNYHNEDDNKTFASGDSRYSFDYDEKTKTLIVFTNSKVDAVFVDGIKKK | -0.0966
65 | HMKKTAAKVLGESEGKPVTVQSGRYGPYVQLGSIRATLPKDLEQDDVTLDRALELISAKAERAGK | 0.122
66 | HMTDGLTVPMQGVVIRYKAKKGDKVAVGDAVAVLEAMKMEQNIFANKSGTIKEIYIKEGTTVTPGDVLMSI | -0.0052
67 | HMLARPTANELVKEMQRRAKEQRTELPPDAARDLLERSGQDQFLLGNEVDKLAALSGYTTITREMVAQAGT | 0.186
68 | HMKAEKEIEKIKFTIYNEFKRKQEENHFLPPWDGTKMLRQFVLGVVANNPKYQHVNTDILYRDLLLLYYQ | -0.968
69 | HMIMNDIQAKVLEIAETKDLGSITYYRLSKMLGVDHPYRVKYAIDKLIEKGLLTAKSDGSITKAI | -0.601
70 | HMGSNENTIREYFDSLIASASKREIMDANPTMSQRTVERILQKLQAEGYVEKIGAARSTRYRRA | -0.178
71 | HMNDNQNKQMLWELLKDNRAFDNFDNKDYKTIIHLFNETVNTIDHRTPNLDLIKKNKIFIQDIMQKLSNL | -1.13
72 | HMDAPKTGSLVVSKAVNYGSWSGFTFRLHGTSDKGNSVDVTATTGSDGKAYFKDIEIGTYTLEEVN | -0.387
73 | HMVAAITDLPVKSVNGRQMYYYVVRKGETVYSLTHTLGITHDRLVKANRSVEDGLRAGQILYFPVSEFG | -1.42
74 | HMRPRGTRLPTGWTPSSDALDWTKAEKPGLDPLQTLEKFRDYWTAQPGQKGVKTDWDATWRNWVRREIP | 0.172
75 | HMAQRFDLGDKLNPQSSEFEYLGTSSRTGVSTYRYKNVPTQLFFGRQIGDIVVGVRRGMITLTIYNL | -0.0451
